In patent publication US7901936B2, “Method for stimulating self-renewal of neural stem cells and enhancing neurogenesis” (Albany Medical College, priority 2004, dated 2011):

Tested on: cortical stem cell clones
Experiment: Clonal growth of cortical stem cells with added soluble growth factors (without feeder cells)
Format: cell-based, mouse
Settings: factor added at 10-50 ng/ml to serum-free medium with FGF2, no feeder cells
Method: Embryonic cerebral cortices and adult SVZ were dissected and dissociated as described (18-20). Single cells were plated into poly-l-lysine-coated 6-well plates (Costar) at clonal density (2000-4000 cells/well) and cultured in basal serum-free medium consisting of DMEM, B27, N2, NAC and 10 ng/ml FGF2 (19,20). To test the effects of soluble growth factors (PDGF, CNTF, TGFβ, IGF1, IL1, IL6, G-CSF, M-CSF, GM-CSF, LIF, BDNF, Steel factor, VEGF or EGF), each factor was added to serum-free medium with FGF2 at a range of 10-50 ng/ml, and clonal growth (cell number and generation of neurons and glia) was assessed (without co-cultured feeder cells). LIF and VEGF were also tested in combination, each added at 10 ng/ml into serum-free medium, with and without FGF2.

| Molecule | duplication of the effect of endothelial co-culture on clonal growth |
| --- | --- |
| CNTF: soluble growth factor (protein, UniProt P26441 1-200, looked up) Ciliary neurotrophic factor: MAFTEHSPLTPHRRDLCSRSIWLARKIRSDLTALTESYVKHQGLNKNINLDSADGMPVASTDQWSELTEAERLQENLQAYRTFHVLLARLLEDQQVHFTPTEGDFHQAIHTLLLQVAAFAYQIEELMILLEYKIPRNEADGMPINVGDGGLFEKKLWGLKVLQELSQWTVRSIHDLRFISSHQTGIPARGSHYIANNKKM | none duplicated the result we see from endothelial co-cultures |
| BDNF: soluble growth factor (protein, UniProt P23560 19-247, looked up) Neurotrophic factor BDNF …: APMKEANIRGQGGLAYPGVRTHGTLESVNGPKAGSRGLTSLADTFEHVIEELLDEDQKVRPNEENNKDADLYTSRVMLSSQVPLEPPLLFLLEEYKNYLDAANMSMRVRRHSDPARRGELSVCDSISEWVTAADKKTAVDMSGGTVTVLEKVPVSKGQLKQYFYETKCNPMGYTKEGCRGIDKRHWNSQCRTTQSYVRALTMDSKKRIGWRFIRIDTSCVCTLTIKRGR | none duplicated the result we see from endothelial co-cultures |
| G-CSF: soluble growth factor (protein, UniProt P09919 31-207, looked up) Granulocyte …: TPLGPASSLPQSFLLKCLEQVRKIQGDGAALQEKLVSECATYKLCHPEELVLLGHSLGIPWAPLSSCPSQALQLAGCLSQLHSGLFLYQGLLQALEGISPELGPTLDTLQLDVADFATTIWQQMEELGMAPALQPTQGAMPAFASAFQRRAGGVLVASHLQSFLEVSYRVLRHLAQP | none duplicated the result we see from endothelial co-cultures |
| M-CSF: soluble growth factor (protein, UniProt P09603 33-554, looked up) Macrophage colony-stimulating …: EEVSEYCSHMIGSGHLQSLQRLIDSQMETSCQITFEFVDQEQLKDPVCYLKKAFLLVQDIMEDTMRFRDNTPNAIAIVQLQELSLRLKSCFTKDYEEHDKACVRTFYETPLQLLEKVKNVFNETKNLLDKDWNIFSKNCNNSFAECSSQDVVTKPDCNCLYPKAIPSSDPASVSPHQPLAPSMAPVAGLTWEDSEGTEGSSLLPGEQPLHTVDPGSAKQRPPRSTCQSFEPPETPVVKDSTIGGSPQPRPSVGAFNPGMEDILDSAMGTNWVPEEASGEASEIPVPQGTELSPSRPGGGSMQTEPARPSNFLSASSPLPASAKGQQPADVTGTALPRVGPVRPTGQDWNHTPQKTDHPSALLRDPPEPGSPRISSLRPQGLSNPSTLSAQPQLSRSHSSGSVLPLGELEGRRSTRDRRSPAEPEGGPASEGAARPLPRFNSVPLTDTGHERQSEGSFSPQLQESVFHLLVPSVILVLLAVGGLLFYRWRRRSHQEPQRADSPLEQPEGSPLTQDDRQVELPV | none duplicated the result we see from endothelial co-cultures |
